Assay: soluble on expression in E. coli; label from the status in PepcDB or PDB records
For “MEPYIKALITDSYEQNKNFFRCRFMKNRRGDECNFVGTFSDTLTHFSIHTKVYLFECEGCTKQVVDFMDLVEHRSPSTGAICRGTVENMRQLRLERMKTIDAHRCRNVFIVGATRSEFEDYLRYKNTHGKQQSFGTPLYNDNEEEQTRHQPQQQRSSTPLAPTTPTPPPPTQAPTNHRELLLDFPLPVDFSRPPPVIPPEYFFNAPSVSQQHHQRSQYQHYAPQPQGNRTPGYVARPITPHGNPKPQNYQIGGGWNPYANPPSAKDAPATVRDNRSPSRPRGDFRRDRSQSRGAETHCQQSYQPPADPLQDRSRNGRSPPMGTHSHYGQNAKPAQNGNTSHYELRSRSRGRATVPMNANFRAGHQTGSSSRLESRSRATASVGARAPSRAPAPSSTSRETRSTRRSPSKGPSAPAYTLPFGGSTPNHEPMDLELEDPVPPPRPDRPRASTSLNTSVSQIKRNEVQTGVYNIRPQRVQDTVQKARTAVGYAGTRNRSPLREADAEEIAATEALKNRFAVKSRGTAKAKANSNRGAALLESIEPTNRKIETAEEREKKQNDLYLEKMRKIREKQRLEQEKIDDVVVDSGNLPTIAPNAAGTPPPQSVAAMLEPKEESEEDEPSTSASVPFQRRMNSPQTHATSYARRSDGKRHPSKSRSSRDDRANRRDRDRDSDGRCGDDRRRDHRSHPYERH”, the “soluble on expression in E. coli” value was “not soluble”. In the case of “MRSYRAQGPLPGFYHYYPGVPAVVGVRVEERVNFCPAVWNTGLSADPPLFGVSISPKRFTHGLLLKARRFSASFHPFGQKDLVHWLGSHSGREVDKGQAPHFLGHTGVPILEGAYAAYELELLEVHTFGDHDLFVGRVVAVWEEEGLLDEKGRPKPGLALLYYGKGLYGRPAEETFAP”, the “soluble on expression in E. coli” value is reported as “soluble”. With “MSLIKQEHMHPPPRAITPLPPATHQITLEEYKEREKKDYYRDATKDASVKKVVLSLLKDHPGMWQNGNRFQPEKWRALGVDVYQRTGQIVRVNDMRKMLVMGKSVLKKKIAICIRDKKLDRAATEKDLWYWEYYRHFLYYRETLGQFEANLRGEEWTGEDQIQDEDDIIYDGMLDGDLSNSSHNFAGHGADDDYQVEEVQYSEAGFRRPESVRGGDSYFGHGPPPQMVMGSSASNFSSATQSHSRNRKSSSIDHTEVDRSAQHIAEQAKRLFLQYPEKSNLIRETMFKTILAFDDPSADYQNVGEIFDDLAAQEAAKKRKRAENRAQREQQ” the “soluble on expression in E. coli” value was “not soluble”. For “MPPRRYNPDTRRDELLERINLDIPGAVAQALREDLGGTVDANNDITAKLLPENSRSHATVITRENGVFCGKRWVEEVFIQLAGDDVTIIWHVDDGDVINANQSLFELEGPSRVLLTGERTALNFVQTLSGVASKVRHYVELLEGTNTQLLDTRKTLPGLRSALKYAVLCGGGANHRLGLSDAFLIKENHIIASGSVRQAVEKASWLHPDAPVEVEVENLEELDEALKAGADIIMLDNFETEQMREAVKRTNGKALLEVSGNVTDKTLREFAETGVDFISVGALTKHVQALDLSMRFR”, the “soluble on expression in E. coli” value was “soluble”. In the case of “MSLQSSVKTERQYLSGRGCDDMVQWDFMCTGGNNSGKWTKIGVPSCWELQGFGTYQYGMKFYGKAFPEGVADEQGLYKYEFELPAEWNGKQIELVFEGSMTDTQVKINGRKAGSMHQGAFYRFIYNVSDRVFFGSKKKNVLEVTVSKESANAGVNLAERRADYWNFGGIFRPVFIVAKPAQNIDRLVIDAKADGNFYADCFLNMAVEGARVHTVITDAKGKKVAENTSDVRTGSDHASINFAVKSPELWTAETPAMYQATFTLLDKAGKTLHVENQKFGFRTIETRESDGLYINGRRVMIKGVNRHSFRPESGRTLSKAKNIEDVLLIKSMNMNAVRLSHYPADPEFFEACDSLGLYVMDELSGWHGKHETINGQKLVKEMITRDVNHPCIIWWSNGNEKGWNTELDGEFHKYDPQKRPVLHPQGNFSGYETMHYRSYGESQNYMRLPEIFMPTEFLHGLYDGGHGAGLYDYWEMMRKHPRCAGGFLWVLADEGVKRVDMNGFIDNCGNYGADGIVGPHHEKEGSYFTIKQVWCPIQIMTDSLDSQFDGKLKIENRYDFLNANTCRFTYKYVQLPSVTDKGGMKVMKQGEVNCPDIPAHGAGTLTIPAAVKGANALMLTVTDKQGNDLFTWSYKLDDVAGLQQVSAGNKPSYKETADALTVDAEGRTFTFSQKDGQLKGVKVGSRIISLANGPRFIAAKRSDRSMDQFYNHDDKEAEKKKTQYTTFDDAGRFTGFTVREEGNNVVVTANYKLGCFDQAVWTIAPDGTAAIDFTYNFSGVVDLMGVMFDYPEDKVLSKRWVGDGPYRVWQNRLHGPQLGVWENEYNDPIPAESFTYPEFKGYFANVQWMTLKTQEGTISICNRTPQNYVGVYQPRDGRDGLLYTFPATGISLMKVIPPVRNKVNTTDLIGPSSQAFWADGAYGGGITLKFEEGHHHHHH”, the “soluble on expression in E. coli” value is reported as “soluble”. For “MTDLEHAVESNRRAWDASADSHLRGGGWQELSLAVQETGFSCLDETLAGVLRNLDLAGKAAVQVGCNNGREVLSLYAFGVARAVGIDQSAAFLAQARQLAERSPHQPRFVEANAYELPAELNGQFDLLLITIGVLNWMPDIARFFASVSGLLKPGGQLAIYETHPFLEMLEPESERPFELRNDYFTDTPHVSREAIVYEGSGSDTGIASYWYVHPLGDILGGLLGAGLRLSHFKEYPHSNREELYDLYEDGPLAIPMCYTLVAVKA”, the “soluble on expression in E. coli” value was “soluble”. In the case of “MGHHHHHHGSSIETDRVSKEFIEFLKTFHKTGQEIYKQTKLFLEGMHYKRDLSIEEQSECAQDFYHNVAERMQTRGKVPPERVEKIMDQIEKYIMTRLYKYVFCPETTDDEKKDLAIQKRIRALRWVTPQMLCVPVNEDIPEVSDMVVKAITDIIEMDSKRVPRDKLACITKCSKHIFNAIKITKNEPASADDFLPTLIYIVLKGNPPRLQSNIQYITRFCNPSRLMTGEDGYYFTNLCCAVAFIEKLDAQSLNLSQEDFDRYMSGQTSPRKQ”, the “soluble on expression in E. coli” value is reported as “soluble”. With “MSQFSFTKMHGLGNSYIYVNMFEEQIPEEDLALVAEKVSNINTGIGADGMILICPSDVAPVKMRMFNNDGSEGKSCGNGLRCVAKYAYEHKLVEDTVFTIETLAGIVTAEVTVEEGKVTLAKIDMGAPRLTRAEIPMLGEGETPFIRENFLYNNHRYAFTAVSMGNPHAVIFVDDVEQAPLTTLGPVLETHEMFPERVNVEFIEILNEEEMNFRVWERGSGVTQACGTGACAAVVASILNGKMERGKEITVHLAGGDLMIAWTEEGNVLMKGPAEVICRGVYEYKIEA” the “soluble on expression in E. coli” value was “not soluble”. With “RSSLDLQLKNARNLAGLIIHDIDGYMMKGDSSEVDRFISAVKSKNFIMDLRVFDEQAKEVSPTPSQTPNAKIQQAIAAGRTLEFKETLDGKRTLSLVLPFPNEQRCQSCHDAGAAYLGGLLVTTSIEEGYEGARH” the “soluble on expression in E. coli” value was “soluble”. With “MKVSLVIPTYNSKDLVAPCLVSLNHQRLDEADEFEVVLVDDGSTDGTGEVVDSLPLTYRIRRVYVPRTEKSCRSAARNAGIRAADGELIVFVDGDQIIDPLFVQEHIRCHRGRPAIVAIGFRDYQAPGAVDLALLERSFTPEAFPPVADQDERAQVTATLSQNMGNLATGWHFFYGCNVSVRKEHLLAVGGFDENIQKWSFEDVELGYRLHRRGLAFVHNLYSRVYHQFHPESDQERYADWRENFEYFTSKHPELEVRLQWVLDSYFDPGRTSRPSWFDAYLRFEFACRAVAERLPIGHSYEVLVVDADNLDSAEREIARVGAAHDLIVVDITDDRELPTAVQAMRTGRELLYFKEPSPELLQQAAKSFGCAALLKYAAEVLEHHHHHH” the “soluble on expression in E. coli” value was “soluble”. With “MGSDKIHHHHHHMYYISLNVKRRKLNKDNNYNEFLTDPIYSRLIENVEKLKDKVFHLSKIVNLQAYMEGFTFYTSSNYRSTPIDVIPRIITSELFFKISNYLVARSYVLNKFIREVYQEGSNPIPDWIVKTTPYFRPEMMGFSPPKDIYIHVYGADIVRVNGVPFILEDNLRIPSGISYSYKAFEYVDRFLPELKEGYDNRVLQINGLDYLYDILRYVSGNKDPIIVILTDGNYNSAYFEHKFISEKLGIILAEPNDIYVKDKEVVVRTVDEGEVHVDVIYRRIEDLDYLTPGLMKAYLRGWVTLANAPGTGVADDKATFVWIPYLAEKYGIKLENVIQPYTICLYEKENLEKVITQPTRYVIKKREGYGGIGLAIVKDDNINVLKEIYKEYENFIAQEVLDFDTVISVVNDSFYETYADMRIFTYYDKVASAVLSRVGIMGSRITNNSSGGMVKPLWIIK” the “soluble on expression in E. coli” value was “not soluble”. With “GPLGSPEFPGAFRTQKPSLNTVNVVGSSMGSGGVFTIDGKIKCVTAAHVLTGNSARVSGVGFNQMLDFDVKGDFAIADCPNWQGVAPKAQFCEDGWTGRAYWLTSSGVEPGVIGNGFAFCFTACGDAGSPVITEAGELVGVHTGSNKQGGGIVTRPSGQFCNVKPIKLSELSEFFAGPKVPLGDVKIGSHIIKDTCEVPSDLCALLAAKPELE” the “soluble on expression in E. coli” value was “soluble”. For “MTENALLLLNLGSPDSTRVEDVRRYLDQFLMDPYVVDLPWPLRRLLVSLILIKRPAESAHAYSSIWWDEGSPLIVLSRRLQEAMKPHWPHGPVELAMRYGQPAIEKVLLDLARRGIRRVTLAPLYPQFADSTTTTAEQEVRRVIAAHRLGLEVSTLPPFYDQPVYLDALVESVRPYLQQPHDHLLLSFHGLPERHIRKLVKDPAHDLLAENSRNVSPEALALCYRSQCLRTAEAFAERAGLEQGRWSVSFQSRLGRAKWIEPYTDAKLDELVQRGVKRLLVMCPAFVADCIETLEEIGMRGREQFISAGGEDLVLIPCLNDHPAWVGALAEMSGRLARPL”, the “soluble on expression in E. coli” value was “not soluble”. With “MSLGTGSLGLTFHNFSFGDLFNPSAYHPLPHGDGQTLALQWQFGSNHYRTLSLSASDPWAFGTHTSLGFTAFKTKQTYDLTSSNLSTKTINQYGADITIGRRLTWPDDYFAISWRLGYLHTKGGFVSFLNETNAPEEAEEFSITQTISRNSIDNPIYPRHGSKNVFTAQLAGGVLPGTINFYKLIGKTSWFFPVSHNLVVNVAAQQGYLNTFSKDDYIPYTDYFYMGGSGMSSLPTIPLRGYPDHSLGQQFEGETDLYGGRVYSKFTTEVRYPLTLSSSASIYALAFAEAGNLWASASDFNLTDLKKSAGIGLRLYLPIIGQIGIDYGYGFDSVPSEPGKKPQGWNFTFSFGQPNEGHHHHHH” the “soluble on expression in E. coli” value was “not soluble”. For “MGSDKIHHHHHHMNIINFIKNYLSTPMSSLTFAPAHQLARMIRNREVSAVEVLNAYLAQIAKHNSKLNAICTLDEENAYLRARLADEALARGENWGALHGVPITIKDIFETAGLLTTAGYIPLKDYVPQQDATVVARLRTAGAVILGKTNMAELAGDYQSTNSLFPQVNNPWNLDYTAGGSSGGSAAAVAAGLSSLDLGNDIAGSVRQPAHFCGVYGLKPTDRRISTAGQIPEVPGMPVCLRQMMTVGCFARSLEDIRLCFSLIAGSDLRRPDVPPIPLDNPSGKSLQNLKIAWLDEWVEVPVASEIQVAMTAIAHTLTQAGVQIEPWLPKNFDLSKTLNLYGRMAAYINIYAQPVDRYNLHRSWQQIFRTATQGEKELRKLGDFSRLLPDLLNPRLKGYFEVLTERDCFTAQMDEALEPWDAWLTPVAATPAFTHRPAWSAIEIDGRPYPHAVANGAYTMPFNLSGHPAVVIPIGHTQDGLPIGMQVVGKRWREMELLAIAQELDKVINAFRSPFEII”, the “soluble on expression in E. coli” value was “not soluble”. With “MGHHHHHHSHMASVSSATFSGHGARSLLQFLRLVGQLKRVPRTGWVYRNVQRPESVSDHMYRMAVMAMVIKDDRLNKDPEAMKQITQLLPEDLRKELYELWEEYETQSSAEAKFVKQLDQCEMILQASEYEDLEHKPGRLQDFYDSTAGKFNHPEIVQLVSELEAERSTNIAAAASEPHS” the “soluble on expression in E. coli” value was “soluble”. With “MGSDKIHHHHHHMSLTDGPYAGPPQPDVVDPSGGANQTRVRAYNERLVMSLVRRHGSLSKAEIARRSGLSAQTASVIMRSLEADGLLVRGAPVRGRVGQPSIPMRLNPDAVYSFGVKIGRRSADLVLMDFLGTIRLHLHQIHTYPLPEEIVSFIVGGIGKLEGQLGPGERGRIAGVGIATPFELWNWSEEVGAPREEMDRWRDFDLQAAVASRIRHPVFLQNDGTSACGAELAFGVGASYPDFVYFYIGSFIGGGVVINSALFSGRTGTAGAVGPLPVAGKDGKSTQLLKIASVFVLEKLLRERGIDPEPLWYSADDWIDFGEPLEIWIQDAAAALAQAVVSAVSVVDFSAAVIDGGFPPWVRARLLAATRKALQTLDLQGVTVPDLVEGTVGSHARAIGGASLPLFSRYLLDTNVLFKEL” the “soluble on expression in E. coli” value was “not soluble”.
